Experimental data from paper PMC7293020.
One block for each binder: values may come before it.

Tests used:
EcSSB = EcSSB (Escherichia coli, UniProt P0AGE0 1-178); assay: MST
[1] = target: EcSSB and the SSB-IDL fusions; assay: ITC

Sequence of EcSSB (P0AGE0 whole entry, the tested form may be a part): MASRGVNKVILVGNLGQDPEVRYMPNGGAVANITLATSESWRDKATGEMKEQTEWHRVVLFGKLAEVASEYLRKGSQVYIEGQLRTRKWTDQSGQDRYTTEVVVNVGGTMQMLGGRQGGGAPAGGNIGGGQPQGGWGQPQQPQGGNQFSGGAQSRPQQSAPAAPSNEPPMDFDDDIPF

B1: Cy5-dT35 (ssDNA)
DNA: TTTTTTTTTTTTTTTTTTTTTTTTTTTTTTTTTTT
- Kd (EcSSB): 1.23 ± 0.29 nM

- Kd [1]: 4460 to 5780 nM
B2: Escherichia coli exonuclease I (ExoI) (enzyme)
chain: MMNDGKQQSTFLFHDYETFGTHPALDRPAQFAAIRTDSEFNVIGEPEVFYCKPADDYLPQPGAVLITGITPQEARAKGENEAAFAARIHSLFTVPKTCILGYNNVRFDDEVTRNIFYRNFYDPYAWSWQHDNSRWDLLDVMRACYALRPEGINWPENDDGLPSFRLEHLTKANGIEHSNAHDAMADVYATIAMAKLVKTRQPRLFDYLFTHRNKHKLMALIDVPQMKPLVHVSGMFGAWRGNTSWVAPLAWHPENRNAVIMVDLAGDISPLLELDSDTLRERLYTAKTDLGDNAAVPVKLVHINKCPVLAQANTLRPEDADRLGINRQHCLDNLKILRENPQVREKVVAIFAEAEPFTPSDNVDAQLYNGFFSDADRAAMKIVLETEPRNLPALDITFVDKRIEKLLFNYRARNFPGTLDYAEQQRWLEHRRQVFTPEFLQGYADELQMLVQQYADDKEKVALLKALWQYAEEIV
